Results as given in patent US20250376498A1, “FUSION PROTEINS COMPRISING AN IMPROVED GLP-1 RECEPTOR AGONIST AND USES THEREOF” (Guangzhou Innogen Pharmaceutical Group Co., Ltd., priority 2022, published 2025).
“And” between values parts separate entries of the source, which are not always exact repeats. Equal entries are not always repeated.

Experiments:
NASH Rhesus monkeys = experiment: NASH Rhesus monkeys, liver biopsy histology (NAS and fibrosis scores); type: in vivo; parameters: key to Fibrosis score: 0: No fibrosis observed; 1a: Mild perisinus fibrosis in zone 3; 1b: Moderate sinus fibrosis in zone 3; 1c: Periportal fibrosis; 2: Perisinus and periportal fibrosis; 3: Bridging fibrosis; 4: Cirrhosis; key to NAS Score: NAFLD activity score (NAS) from steatosis, inflammation, ballooning grades; conditions: for Fibrosis score / NAS Score / Steatosis score: individual animals
Method: Amount of specimens collected: ≤2 needles, each needle with a specimen length≤1.5 cm, and the total cumulative specimen length≤3 cm.
Approximately 2 cm of the collected tissue was immediately placed in 4% buffered formalin at room temperature and fixed for at least 24 hours. After appropriate modifications, dehydration, embedding, sectioning, HE staining, and Masson staining were performed.
Tissue sections were stained with H&E and Masson stains. Pathological slides were evaluated by a pathologist according to the diagnostic and treatment guidelines for non-alcoholic fatty liver disease (NAFLD) jointly drafted by the American Association for the Study of Liver Diseases (AASLD), the American College of Gastroenterology (ACG), and the American Gastroenterological Association (AGA). The diagnostic criteria can be found in Table 2 and Table 3.
After adequate fixation of the liver biopsy specimens, they were dehydrated, infiltrated with paraffin, embedded, and sectioned (5 μm) directly.
Routine deparaffinization of the sections was performed. The sections were sequentially immersed in 100% ethanol I, 100% ethanol II, 95%, 85%, and 75% ethanol for 3 minutes each. They were then rinsed with tap water for 3 minutes, stained with hematoxylin-eosin (HE) staining solution for 12 minutes, rinsed with tap water for 5 minutes, and stained with eosin Y solution (aqueous) for 3 minutes. Dehydration was carried out rapidly with 95% ethanol, followed by two rounds of dehydration with absolute ethanol for 2-5 minutes each. The sections were then cleared with xylene twice for 10 minutes each. Neutral mounting medium was applied, and microscopic examination was performed.
Routine deparaffinization of the sections was performed. The sections were stained with Weigert's iron hematoxylin for 5-7 minutes, and simultaneously, weak acid working solution was prepared by mixing distilled water and weak acid solution in a ratio of 2:1. The sections were rinsed with weak acid working solution for 1 minute. After rinsing with phosphomolybdic acid solution for 1-2 minutes, the sections were directly placed in aniline blue staining solution for 1-2 minutes, followed by rinsing with the prepared weak acid working solution for 1 minute. Dehydration was carried out rapidly with 95% ethanol, followed by two rounds of dehydration with absolute ethanol for 2-5 minutes each. The sections were then cleared with xylene twice for 10 minutes each. Neutral mounting medium was applied, and microscopic examination was performed.
The sections were observed under a microscope (with a digital imaging system), and pathological diagnosis and photography were performed. Based on the histopathological diagnosis, the HE and Masson results were scored according to the scoring criteria for non-alcoholic fatty liver disease activity score (NAS, Table 8) and liver fibrosis staging (Table 9).
Fifteen Rhesus monkeys were divided into 3 groups, with 5 monkeys in each group. They received subcutaneous injections of 0 (solvent control, placebo control group), 0.050, or 0.150 mg/kg of YN-011 once a week for 13 weeks (QW). The 0.150 mg/kg YN-011 group received adaptive dosing (0.1 mg/kg for the first dose, followed by 0.150 mg/kg for the remaining 12 doses).
To investigate whether YN-011 treatment led to histological improvements in the liver, liver biopsy specimens were collected from all Rhesus monkeys before the first injection and on day 89 after the first injection. Liver slices were stained with HE and Masson stains for histological analysis. The degrees of steatosis, inflammation, hepatocyte ballooning, and fibrosis were scored according to the standards for NAFLD activity and NASH progression.

INS-1 cells = experiment: Assessment of YN-011 activity by inducing cAMP levels in INS-1 cells; type: cell-based; conditions: YN-011 120 nM
Method: Natural GLP-1 stimulates insulin secretion from beta cells in a glucose-dependent manner. […] INS-1 cells were serum-starved and glucose-starved, then treated with different amounts of purified YN-011 in the presence of 0, 5, or 20 mM glucose as indicated.
Furthermore, the blank control (SF1) and the two samples with the […] hydroxylation levels (SF4 and SF5) were tested for the biological activity of YN-011 using the method described in Example 1. […] Thus, higher hydroxylation levels tend to increase the biological activity.

[1] = human, in vivo
patients with T2DM = experiment: Phase IIb and III clinical trials of YN-011 in combination with metformin in T2DM; type: in vivo; conditions: 3 mg YN-011 in combination with metformin, 24 weeks
Method: The Phase IIb and III clinical trials were multicenter, randomized, double-blind, placebo-controlled studies evaluating the efficacy and safety of YN-011 in patients with T2DM who had inadequate glycemic control on metformin therapy. The Phase IIb trial aimed to explore dose response and evaluate safety (divided into three groups: YN-011 1 mg+metformin, YN-011 3 mg+metformin, and placebo+metformin), to determine the Recommended Phase 3 Dose (RP3D) for the Phase III trial, which aimed at efficacy confirmation . . .
The inclusion criteria for subjects in the Phase IIb and III studies of YN-011 in combination with metformin were primarily the same as those in Implementation Example 10, except for the following point: • Diagnosed with type 2 diabetes for at least 8 weeks (WHO 2000), and met one of the following conditions: • a) Received monotherapy with metformin for >8 weeks with a dose of ≥1500 mg/day or maximum tolerated dose (<1500 mg/day but ≥1000 mg/day) (eligible subjects could directly enter the run-in period). • b) Received monotherapy with metformin for <8 weeks with a dose of ≥1500 mg/day or maximum tolerated dose (<1500 mg/day but ≥1000 mg/day) (eligible subjects needed to enter the metformin dose stabilization period). • c) Received monotherapy with metformin at a dose <1500 mg/day and had not reached the maximum tolerated dose (eligible subjects needed to enter the metformin dose titration period and dose stabilization period).
Please refer to the exclusion criteria in Implementation Example 10 for the primary exclusion criteria for subjects in the Phase IIb and III studies of YN-011 in combination with metformin.
Primary efficacy endpoints included the comparison of YN-011 in combination with metformin versus placebo in combination with metformin in terms of the change in HbA1c levels from baseline after 12 weeks (Phase IIb) or 24 weeks (Phase III) of double-blind administration in patients with T2DM who had inadequate glycemic control on metformin therapy. Please refer to Implementation Example 10 for the secondary efficacy endpoints and safety assessments.

[2] = 50 μg/kg group, Day 89 post-injection
[3] = 150 μg/kg group, Day 89 post-injection

B1: YN-011: GLP-1 fusion protein of SEQ ID NO: 7: GLP-1 (A8G, G22E, R36G), linker peptide and IgG2/Fc domain (C222S, A330S, P331S) (protein)
chain: HGEGTFTSDVSSYLEEQAAKEFIAWLVKGGGSSGAPPPSGGGGSERKSCVECPPCPAPPVAGPSVFLFPPKPKDTLMISRTPEVTCVVVDVSHEDPEVQFNWYVDGVEVHNAKTKPREEQFNSTFRVVSVLTVVHQDWLNGKEYKCKVSNKGLPSSIEKTISKTKGQPREPQVYTLPPSREEMTKNQVSLTCLVKGFYPSDIAVEWESNGQPENNYKTTPPMLDSDGSFFLYSKLTVDKSRWQQGNVFSCSVMHEALHNHYTQKSLSLSPG
Fibrosis score (NASH Rhesus monkeys; 50 μg/kg group, Baseline): 1a (2×) and 1c (2×) and 0-1a
NAS Score (NASH Rhesus monkeys; 50 μg/kg group, Baseline): 3 (2×) and 4 (3×)
Steatosis score (NASH Rhesus monkeys; 50 μg/kg group, Baseline): 1 (5%~33%) (4×) and 2 (34%~66%)
Fibrosis score (NASH Rhesus monkeys; [2]): 1a (2×) and 0~1a (3×)
NAS Score (NASH Rhesus monkeys; [2]): 2 (3×) and 1 (2×)
Steatosis score (NASH Rhesus monkeys; [2]): 0 (<5%) (4×) and 1 (5%~33%)
Fibrosis score (NASH Rhesus monkeys; 150 μg/kg group, Baseline): 1a (2×) and 1b (2×) and 0~1a
NAS Score (NASH Rhesus monkeys; 150 μg/kg group, Baseline): 3 (2×) and 4 (3×)
Steatosis score (NASH Rhesus monkeys; 150 μg/kg group, Baseline): 2 (34%~66%) (4×) and 3 (>66%)
Fibrosis score (NASH Rhesus monkeys; [3]): 1a (2×) and 1b and 0~1a (2×)
NAS Score (NASH Rhesus monkeys; [3]): 1 (3×) and 2 (2×)
Steatosis score (NASH Rhesus monkeys; [3]): 1 (5%~33%) (3×) and 0 (<5%) (2×)
NAS and liver fibrosis scores (liver biopsy) (NASH Rhesus monkeys; NASH Rhesus monkeys treated with YN-011): reduction in both NAS and liver fibrosis scores
cAMP levels (INS-1 cells; 5 mM glucose, comparable to exendin-4): significantly increased
cAMP levels (INS-1 cells; absence of glucose): maintained basal levels of cAMP
half-life compared with SUPA-1, Dulaglutide and Semaglutide [1]: significantly longer half-life than Dulaglutide and Semaglutide
plasma concentration steady state [1]: reached a steady state after the fourth dose
median Tmax ([1]; sc): 60 to 84 h
incidence of hypoglycemia (<3.9 mmol/L) (patients with T2DM): 1.8%
incidence of nausea (patients with T2DM): 7.0%
reduction in FPG levels (patients with T2DM): 2.42%
reduction in HbA1c levels (patients with T2DM): 1.8%
